From patent publication US20130289246A1

Tests used:
Assay in all cases: cell-based or functional assay
[1] = target: HA of A/Hong Kong/1/1968 (H3N2) virus (Influenza A virus (H3N2)) (UniProt Q91MA7)
[2] = target: HA of A/Vietnam/1203/2004 (H5N1) virus (Influenza A virus (H5N1))
[3] = target: HA of A/Alabama/1/1981 (H3N2) virus (Influenza A virus (H3N2))
[4] = target: HA of A/California/04/2009 (H1N1) virus (Influenza A virus (H1N1))

For murine hybridoma mAb S139/1 (antibody), the HAI activity [1] was < 0.2 µg/mL, the HAI activity [2] was > 50 µg/mL and the HAI activity [3] was > 50 µg/mL. For the same substance, the HAI activity [4] was > 50 µg/mL.
